Measured values taken from doi:10.1101/2025.02.03.636340.

Molecular target: HA-SNAP-mGluR3 (rat metabotropic glutamate receptor 3) (rat), P31422
Test: SiMPull with photobleaching step analysis
Conditions: remark: other sources report otherwise

% of spots with 2 bleaching steps in the receptor channel: 50% | stoichiometry N: 2
B1: HA-SNAP-mGluR3 (rat metabotropic glutamate receptor 3), P31422 23-879 (receptor)
chain: LGDHNFMRREIKIEGDLVLGGLFPINEKGTGTEECGRINEDRGIQRLEAMLFAIDEINKDNYLLPGVKLGVHILDTCSRDTYALEQSLEFVRASLTKVDEAEYMCPDGSYAIQENIPLLIAGVIGGSYSSVSIQVANLLRLFQIPQISYASTSAKLSDKSRYDYFARTVPPDFYQAKAMAEILRFFNWTYVSTVASEGDYGETGIEAFEQEARLRNICIATAEKVGRSNIRKSYDSVIRELLQKPNARVVVLFMRSDDSRELIAAANRVNASFTWVASDGWGAQESIVKGSEHVAYGAITLELASHPVRQFDRYFQSLNPYNNHRNPWFRDFWEQKFQCSLQNKRNHRQVCDKHLAIDSSNYEQESKIMFVVNAVYAMAHALHKMQRTLCPNTTKLCDAMKILDGKKLYKEYLLKINFTAPFNPNKGADSIVKFDTFGDGMGRYNVFNLQQTGGKYSYLKVGHWAETLSLDVDSIHWSRNSVPTSQCSDPCAPNEMKNMQPGDVCCWICIPCEPYEYLVDEFTCMDCGPGQWPTADLSGCYNLPEDYIKWEDAWAIGPVTIACLGFLCTCIVITVFIKHNNTPLVKASGRELCYILLFGVSLSYCMTFFFIAKPSPVICALRRLGLGTSFAICYSALLTKTNCIARIFDGVKNGAQRPKFISPSSQVFICLGLILVQIVMVSVWLILETPGTRRYTLPEKRETVILKCNVKDSSMLISLTYDVVLVILCTVYAFKTRKCPENFNEAKFIGFTMYTTCIIWLAFLPIFYVTSSDYRVQTTTMCISVSLSGFVVLGCLFAPKVHIVLFQPQKNVVTHRLHLNRFSVSGTATTYSQSSASTYVPTVCNGREVLDSTTSSL
modifications: here or on the partner: SNAP tag labelled with SBG-JF646; SNAP tag labelled with SBG-JF646
